This note sets out measurements from patent publication US20030157554A1 (published 2003).

Read-outs that look alike come from different tables or passages of the source.

To fix the notation:
B1: Synphilin (Genbank ID: AF076929) (other, human, UniProt Q9Y6H5 335-660, looked up)
chain: PHLAADNLDKIHDENGNNLLHIAASQGHAECLQHLTSLMGEDCLNERNTEKLTPAGLAIKNGQLECVRWMVSETEAIAELSCSKDFPSLIHYAGCYGQEKILLWLLQFMQEQGISLDEVDQDGNSAVHVASQHGYLGCIQTLVEYGANVTMQNHAGEKPSQSAERQGHTLCSRYLVVVETCMSLASQVVKLTKQLKEQTVERVTLQNQLQQFLEAQKSEGKSLPSSPSSPSSPASRKSQWKSPDADDDSVAKSKPGVQEGIQVLGSLSASSRARPKAKDEDSDKILRQLLGKEISENVCTQEKLSLEFQDAQASSRNSKKIPLEKR
notes: range 335-~660; Prey from kidney library; end of the fragment approximate; also called Synphilin I; Synphilin 1
B2: LZIP (Genbank ID: AF029674) (other, human, UniProt O43889 1-371, looked up)
chain: MELELDAGDQDLLAFLLEESGDLGTAPDEAVRAPLDWALPLSEVPSDWEVDDLLCSLLSPPASLNILSSSNPCLVHHDHTYSLPRETVSMDLESESCRKEGTQMTPQHMEELAEQEIARLVLTDEEKSLLEKEGLILPETLPLTKTEEQILKRVRRKIRNKRSAQESRRKKKVYVGGLESRVLKYTAQNMELQNKVQLLEEQNLSLLDQLRKLQAMVIEISNKTSSSSTCILVLLVSFCLLLVPAMYSSDTRGSLPAEHGVLSRQLRALPSEDPYQLELPALQSEVPKDSTHQWLDGSDCVLQAPGNTSCLLHYMPQAPSAEPPLEWPFPDLFSEPLCRGPILPLQANLTRKGGWLPTGSPSVILQDRYSG
notes: range 1-372; Prey from liver and muscle libraries; also called LIZP
B3: S100A9 (Genbank ID: M26311) (other, human, UniProt P06702 1-114, looked up)
chain: MTCKMSQLERNIETIINTFHQYSVKLGHPDTLNQGEFKELVRKDLQNFLKKENKNEKVIEHIMEDLDTNADKQLSFEEFIMLMARLTWASHEKMHEGDEGPGHHHKPGLGEGTP
notes: range 1-114; Prey from liver and muscle libraries
B4: STAU (Genbank ID: AF061939) (other, human, UniProt O95793 6-577, looked up)
chain: VQVQNPSAALSGSQILNKNQSLLSQPLMSIPSTTSSLPSENAGRPIQNSALPSASITSTSAAAESITPTVELNALCMKLGKKPMYKPVDPYSRMQSTYNYNMRGGAYPPRYFYPFPVPPLLYQVELSVGGQQFNGKGKTRQAAKHDAAAKALRILQNEPLPERLEVNGRESEEENLNKSEISQVFEIALKRNLPVNFEVARESGPPHMKNFVTKVSVGEFVGEGEGKSKKISKKNAAIAVLEELKKLPPLPAVERVKPRIKKKTKPIVKPQTSPEYGQGINPISRLAQIQQAKKEKEPEYTLLTERGLPRRREFVMQVKVGNHTAEGTGTNKKVAKRNAAENMLEILGFKVPQAQPTKPALKSEEKTPIKKPGDGRKVTFFEPGSGDENGTSNKEDEFRMPYLSHQQLPAGILPMVPEVAQAVGVSQGHHTKDFTRAAPNPAKATVTAMIARELLYGGTSPTAETILKNNISSGHVPHGPLTRPSEQLDYLSRVQGFQVEYKDFPKNNKNEFVSLINCSSQPPLISHGIGKDVESCHDMAALNILKLLSELDQQSTEMPRTGNGPMSVCGRC
notes: range 6-578; Prey from brain library; also called Staufen
B5: NAPA1 (Genbank ID: U39412) (other, human, UniProt P54920 1-295, looked up)
chain: MDNSGKEAEAMALLAEAERKVKNSQSFFSGLFGGSSKIEEACEIYARAANMFKMAKNWSAAGNAFCQAAQLHLQLQSKHDAATCFVDAGNAFKKADPQEAINCLMRAIEIYTDMGRFTIAAKHHISIAEIYETELVDIEKAIAHYEQSADYYKGEESNSSANKCLLKVAGYAALLEQYQKAIDIYEQVGTNAMDSPLLKYSAKDYFFKAALCHFCIDMLNAKLAVQKYEELFPAFSDSRECKLMKKLLEAHEEQNVDSYTESVKEYDSISRLDQWLTTMLLRIKKTIQGDEEDLR
notes: Full-length bait; Gal4-BD fusion
B6: FHOS (Genbank ID: AF113615) (other, human, UniProt Q9Y613 964-1164, looked up)
chain: TPQAAREVRIMQFCHTLREFALEYRTCRERVLQQQQKQATYRERNKTRGRMITETEKFSGVAGEAPSNPSVPVAVSSGPGRGDADSHASMKSLLTSRPEDTTHNRRSRGMVQSSSPIMPTVGPSTASPEEPPGSSLPSDTSDEIMDLLVQSVTKSSPRALAARERKRSRGNRKSLRRTLKSGLGDDLVQALGLSKGPGLEV
notes: range 964-1164; Prey from muscle library
B7: S100A1-1 (other, human, UniProt P23297 1-94, looked up)
chain: MGSELETAMETLINVFHAHSGKEGDKYKLSKKELKELLQTELSGFLDAQKDVDAVDKVMKELDENGDGEVDFQEYVVLVAALTVACNNFFWENS
notes: Full-length bait; also called full length S100A1
B8: SYN4 (Genbank ID: u07158) (other, human, UniProt Q12846 158-297, looked up)
chain: RQLKITNAGMVSDEELEQMLDSGQSEVFVSNILKDTQVTRQALNEISARHSEIQQLERSIRELHDIFTFLATEVEMQGEMINRIEKNILSSADYVERGQEHVKTALENQKKARKKKVLIAICVSITVVLLAVIIGVTVVG
notes: Prey from brain and muscle libraries; also called Syntaxin 4
B9: S100B-1 (other, human, UniProt P04271 1-92, looked up)
chain: MSELEKAMVALIDVFHQYSGREGDKHKLKKSELKELINNELSHFLEEIKEQEVVDKVMETLDNDGDGECDFQEFMAFVAMVTTACHEFFEHE
notes: Full-length bait; also called full length S100B
B10: ATPase (ATP6N1) (Genbank ID: u73006) (other, human, UniProt Q93050 1-300, looked up)
chain: MGELFRSEEMTLAQLFLQSEAAYCCVSELGELGKVQFRDLNPDVNVFQRKFVNEVRRCEEMDRKLRFVEKEIRKANIPIMDTGENPEVPFPRDMIDLEANFEKIENELKEINTNQEALKRNFLELTELKFILRKTQQFFDEMADPDLLEESSSLLEPSEMGRGTPLRLGFVAGVINRERIPTFERMLWRVCRGNVFLRQAEIENPLEDPVTGDYVHKSVFIIFFQGDQLKNRVKKICEGFRASLYPCPETPQERKEMASGVNTRIDDLQMVLNQTEDHRQRVLQAAAKNIRVWFIKVRKM
notes: range 1-~300; Prey from liver library; end of the fragment approximate; also called Vacuolar-type H(+) ATPase; ATP6N17

Data set [1] deals with T1, S100A6 (Genbank ID: M14300) (human, UniProt P06703 1-90). Kind of data set: Y2H 1x1 mating, binder AD fusion, target BD fusion.
Data set [2] deals with the molecule itself. Briefly: Y2H 1x1 mating, binder AD fusion, target BD fusion.
The target of data set [3] is B10. Kind of data set: Y2H 1x1 mating, binder AD fusion, target BD fusion.
Data set [4] concerns the target B1. Briefly: Y2H 1x1 mating, binder AD fusion, target BD fusion.
The target of data set [5] is B6. Briefly: Y2H 1x1 mating, binder AD fusion, target BD fusion.
Data set [6] deals with the molecule itself. Briefly: Y2H 1x1 mating, binder AD fusion, target BD fusion. This is another data set of the same source.
Data set [7] addresses B2. Kind of data set: Y2H library screen, binder bait, target prey.
Data set [8] deals with the molecule itself. Kind of data set: Y2H 1x1 mating, binder AD fusion, target BD fusion. The source holds these as a separate data set.
In data set [9] the target is B1. Kind of data set: Y2H 1x1 mating, binder AD fusion, target BD fusion. This is another data set of the same source.
Data set [10] addresses B5. Briefly: Y2H library screen, binder bait, target prey.
Data set [11] addresses B2. Kind of data set: Y2H 1x1 mating, binder AD fusion, target BD fusion.
Data set [12] concerns the molecule itself. Kind of data set: Y2H, baits tested against each other.
Data set [13] concerns the target B3. Briefly: Y2H 1x1 mating, binder AD fusion, target BD fusion.
Data set [14] addresses T1, S100A6 (Genbank ID: M14300). Briefly: Y2H 1x1 mating, binder AD fusion, target BD fusion. This is another data set of the same source.
Data set [15] has as its target T2, Fibrinogen (Genbank ID: M58569), S100A1 interactor (human, UniProt P02671 345-545, limits assumed).
T2 construct: range 345-~545; Prey from liver library found with S100A1; also called fibrinogen alpha subunit
T2 sequence (looked up): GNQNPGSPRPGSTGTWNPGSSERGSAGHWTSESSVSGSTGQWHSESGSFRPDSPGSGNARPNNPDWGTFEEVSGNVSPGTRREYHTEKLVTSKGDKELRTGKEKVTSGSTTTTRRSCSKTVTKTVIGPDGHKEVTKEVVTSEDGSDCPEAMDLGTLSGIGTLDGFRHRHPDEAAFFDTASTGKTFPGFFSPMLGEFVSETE
Kind of data set: Y2H 1x1 mating, binder AD fusion, target BD fusion.

On to B1, for which the binding result in data set [1] is “no binding”.

Turning to B2, the binding result in data set [2] is “no binding”.

Turning to B3, the binding result in data set [3], in data set [4] and in [5] was “no binding” each time.

For the molecule B4, the binding result in data set [6] was “no binding”.

As for B5, the binding result in data set [7] is “binds”.

In the case of B6, the binding result in data set [1], in data set [3], in [4] and in data set [8] was “no binding” throughout.

With B7, in data set [9], the binding result was “no binding”.

Consider B8, for which the results for the binding result in [10], in data set [11] and in data set [2] were “binds”, “no binding” and “no binding”, respectively.

Regarding B9, the binding result in [12] is given as “binds”; in data set [13], “binds”; in [14], “binds”; in data set [15] it was “no binding”.

For the molecule B10, the binding result in [1], in [4] and in data set [8] was “no binding” each time.
